# From patent US20220010021A1 (Sanofi, published 2022)
# Where a chain is given by its changes, count along the chain named. Names and notes keep the numbering of the source.
# B1: 16H7 variant, light chain N26T (antibody, human IgG4 S228P, lambda, V domains shown)
# VH: not shown
# VL: SYVLTQPPSVSVAPGQTARITCGGNTIGSESVHWYQQKPGQAPVLVVYDDSDRPSGIPERFSGSNSGNTATLTISRVEAGDEADYYCQVWDGNSDHVVFGGGTKLTVLG
# notes: IgG4 backbone
# B2: 16H7 variant, light chain D52A (antibody, human IgG4 S228P, lambda, V domains shown)
# VH: not shown
# VL: B1 VL with T26N, D52A
# notes: IgG4 backbone
# B3: 16H7 variant, light chain D52E (antibody, human IgG4 S228P, lambda, V domains shown)
# VH: not shown
# VL: B1 VL with T26N, D52E
# notes: IgG4 backbone
# B4: 16H7 variant, light chain D52F (antibody, human IgG4 S228P, lambda, V domains shown)
# VH: not shown
# VL: B1 VL with T26N, D52F
# notes: IgG4 backbone
# B5: 16H7 variant, light chain D52G (antibody, human IgG4 S228P, lambda, V domains shown)
# VH: not shown
# VL: B1 VL with T26N, D52G
# notes: IgG4 backbone
# B6: 16H7 variant, light chain D52H (antibody, human IgG4 S228P, lambda, V domains shown)
# VH: not shown
# VL: B1 VL with T26N, D52H
# notes: IgG4 backbone
# B7: 16H7 variant, light chain D52I (antibody, human IgG4 S228P, lambda, V domains shown)
# VH: not shown
# VL: B1 VL with T26N, D52I
# notes: IgG4 backbone
# B8: 16H7 variant, light chain D52K (antibody, human IgG4 S228P, lambda, V domains shown)
# VH: not shown
# VL: B1 VL with T26N, D52K
# notes: IgG4 backbone
# B9: 16H7 variant, light chain D52L (antibody, human IgG4 S228P, lambda, V domains shown)
# VH: not shown
# VL: B1 VL with T26N, D52L
# notes: IgG4 backbone
# B10: 16H7 variant, light chain D52M (antibody, human IgG4 S228P, lambda, V domains shown)
# VH: not shown
# VL: B1 VL with T26N, D52M
# notes: IgG4 backbone
# B11: 16H7 variant, light chain D52N (antibody, human IgG4 S228P, lambda, V domains shown)
# VH: not shown
# VL: B1 VL with T26N, D52N
# notes: IgG4 backbone
# B12: 16H7 variant, light chain D52Q (antibody, human IgG4 S228P, lambda, V domains shown)
# VH: not shown
# VL: B1 VL with T26N, D52Q
# notes: IgG4 backbone
# B13: 16H7 variant, light chain D52R (antibody, human IgG4 S228P, lambda, V domains shown)
# VH: not shown
# VL: B1 VL with T26N, D52R
# notes: IgG4 backbone
# B14: 16H7 variant, light chain D52S (antibody, human IgG4 S228P, lambda, V domains shown)
# VH: not shown
# VL: B1 VL with T26N, D52S
# notes: IgG4 backbone
# B15: 16H7 variant, light chain D52T (antibody, human IgG4 S228P, lambda, V domains shown)
# VH: not shown
# VL: B1 VL with T26N, D52T
# notes: IgG4 backbone
# B16: 16H7 variant, light chain D52V (antibody, human IgG4 S228P, lambda, V domains shown)
# VH: not shown
# VL: B1 VL with T26N, D52V
# notes: IgG4 backbone
# B17: 16H7 variant, light chain D52Y (antibody, human IgG4 S228P, lambda, V domains shown)
# VH: not shown
# VL: B1 VL with T26N, D52Y
# notes: IgG4 backbone
# B18: 16H7 variant, light chain G23A (antibody, human IgG4 S228P, lambda, V domains shown)
# VH: not shown
# VL: B1 VL with G23A, T26N
# notes: IgG4 backbone
# B19: 16H7 variant, light chain G23C (antibody, human IgG4 S228P, lambda, V domains shown)
# VH: not shown
# VL: B1 VL with G23C, T26N
# notes: IgG4 backbone
# B20: 16H7 variant, light chain G23D (antibody, human IgG4 S228P, lambda, V domains shown)
# VH: not shown
# VL: B1 VL with G23D, T26N
# notes: IgG4 backbone
# B21: 16H7 variant, light chain G23F (antibody, human IgG4 S228P, lambda, V domains shown)
# VH: not shown
# VL: B1 VL with G23F, T26N
# notes: IgG4 backbone
# B22: 16H7 variant, light chain G23H (antibody, human IgG4 S228P, lambda, V domains shown)
# VH: not shown
# VL: B1 VL with G23H, T26N
# notes: IgG4 backbone
# B23: 16H7 variant, light chain G23I (antibody, human IgG4 S228P, lambda, V domains shown)
# VH: not shown
# VL: B1 VL with G23I, T26N
# notes: IgG4 backbone
# B24: 16H7 variant, light chain G24P (antibody, human IgG4 S228P, lambda, V domains shown)
# VH: not shown
# VL: B1 VL with G24P, T26N
# B25: 16H7 variant, light chain N25F (antibody, human IgG4 S228P, lambda, V domains shown)
# VH: not shown
# VL: B1 VL with N25F, T26N
# B26: 16H7 variant, light chain P54A (antibody, human IgG4 S228P, lambda, V domains shown)
# VH: not shown
# VL: B1 VL with T26N, P54A
# B27: 16H7 variant, light chain Q88S (antibody, human IgG4 S228P, lambda, V domains shown)
# VH: not shown
# VL: B1 VL with T26N, Q88S
# B28: 16H7 variant, light chain R53N (antibody, human IgG4 S228P, lambda, V domains shown)
# VH: not shown
# VL: B1 VL with T26N, R53N
# B29: 16H7 variant, light chain R53V (antibody, human IgG4 S228P, lambda, V domains shown)
# VH: not shown
# VL: B1 VL with T26N, R53V
# B30: 16H7 variant, light chain S55A (antibody, human IgG4 S228P, lambda, V domains shown)
# VH: not shown
# VL: B1 VL with T26N, S55A
# B31: 16H7 variant with light chain substitution P54A (antibody, V domains shown)
# VH: not shown
# VL: B1 VL with T26N, P54A
# B32: 16H7 variant with light chain substitution R53N (antibody, V domains shown)
# VH: not shown
# VL: B1 VL with T26N, R53N
# B33: 16H7 variant with light chain substitution R53V (antibody, V domains shown)
# VH: not shown
# VL: B1 VL with T26N, R53V
# B34: 16H7 variant with light chain substitution S51F (antibody, V domains shown)
# VH: not shown
# VL: B1 VL with T26N, S51F
# B35: 16H7 variant with light chain substitution S55A (antibody, V domains shown)
# VH: not shown
# VL: B1 VL with T26N, S55A
# B36: 16H7 light chain variant G28Q (antibody, human IgG4 S228P, lambda, V domains shown)
# VH: not shown
# VL: B1 VL with T26N, G28Q
# B37: 16H7 light chain variant G28V (antibody, human IgG4 S228P, lambda, V domains shown)
# VH: not shown
# VL: B1 VL with T26N, G28V
# B38: 16H7 light chain variant S29Y (antibody, human IgG4 S228P, lambda, V domains shown)
# VH: not shown
# VL: B1 VL with T26N, S29Y
# B39: 16H7 light chain variant V97G (antibody, IgG4, V domains shown)
# VH: not shown
# VL: B1 VL with T26N, V97G
# B40: 16H7 light chain variant V97P (antibody, IgG4, V domains shown)
# VH: not shown
# VL: B1 VL with T26N, V97P
# B41: 16H7 light chain variant V97D (antibody, IgG4, V domains shown)
# VH: not shown
# VL: B1 VL with T26N, V97D
# Key:
# [1] = target: T1, human beta-Klotho (KLB) (human, UniProt Q86Z14 53-997); assay: BLI off-rate screen (Octet), Ab captured via Fc;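 note: antibody supernatants applied at 25 µg/mL, dissociation monitored over 1800 s in D-PBS with 0.1% BSA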
# T1 construct: also called human KLB
# T1 sequence (looked up): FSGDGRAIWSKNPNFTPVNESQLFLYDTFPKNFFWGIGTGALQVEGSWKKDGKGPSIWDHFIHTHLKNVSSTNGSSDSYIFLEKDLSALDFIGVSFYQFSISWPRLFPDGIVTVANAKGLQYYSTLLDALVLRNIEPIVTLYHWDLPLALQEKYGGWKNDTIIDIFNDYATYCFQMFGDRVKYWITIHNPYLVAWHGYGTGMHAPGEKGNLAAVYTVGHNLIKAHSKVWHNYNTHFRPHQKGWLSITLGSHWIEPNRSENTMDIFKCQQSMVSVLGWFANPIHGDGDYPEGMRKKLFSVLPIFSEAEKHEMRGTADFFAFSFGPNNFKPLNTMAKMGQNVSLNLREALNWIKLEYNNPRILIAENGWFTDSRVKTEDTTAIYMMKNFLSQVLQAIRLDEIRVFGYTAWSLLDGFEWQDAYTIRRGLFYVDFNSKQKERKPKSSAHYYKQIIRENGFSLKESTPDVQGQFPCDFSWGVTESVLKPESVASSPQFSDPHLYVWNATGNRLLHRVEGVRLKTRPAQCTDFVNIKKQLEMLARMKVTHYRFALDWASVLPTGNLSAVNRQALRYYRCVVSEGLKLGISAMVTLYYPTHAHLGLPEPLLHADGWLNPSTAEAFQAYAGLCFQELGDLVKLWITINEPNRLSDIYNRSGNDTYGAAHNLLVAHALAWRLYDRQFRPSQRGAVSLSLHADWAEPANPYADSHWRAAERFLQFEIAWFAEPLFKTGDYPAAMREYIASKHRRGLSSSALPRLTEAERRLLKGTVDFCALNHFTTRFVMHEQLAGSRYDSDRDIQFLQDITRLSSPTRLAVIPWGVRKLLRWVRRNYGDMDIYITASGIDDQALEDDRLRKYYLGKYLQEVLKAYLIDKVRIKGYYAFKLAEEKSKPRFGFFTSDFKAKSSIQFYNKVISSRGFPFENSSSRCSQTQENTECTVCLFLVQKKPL
# [2] = target: human FGFR1c/KLB cell surface receptor complex on iLite FGF21 reporter cells (human, UniProt P11362 22-822; Q86Z14 1-1044); assay: cell-based or functional assay
# human FGFR1c/KLB cell surface receptor complex on iLite FGF21 reporter cells, sequence (P11362 22-822, chain 1 of 2): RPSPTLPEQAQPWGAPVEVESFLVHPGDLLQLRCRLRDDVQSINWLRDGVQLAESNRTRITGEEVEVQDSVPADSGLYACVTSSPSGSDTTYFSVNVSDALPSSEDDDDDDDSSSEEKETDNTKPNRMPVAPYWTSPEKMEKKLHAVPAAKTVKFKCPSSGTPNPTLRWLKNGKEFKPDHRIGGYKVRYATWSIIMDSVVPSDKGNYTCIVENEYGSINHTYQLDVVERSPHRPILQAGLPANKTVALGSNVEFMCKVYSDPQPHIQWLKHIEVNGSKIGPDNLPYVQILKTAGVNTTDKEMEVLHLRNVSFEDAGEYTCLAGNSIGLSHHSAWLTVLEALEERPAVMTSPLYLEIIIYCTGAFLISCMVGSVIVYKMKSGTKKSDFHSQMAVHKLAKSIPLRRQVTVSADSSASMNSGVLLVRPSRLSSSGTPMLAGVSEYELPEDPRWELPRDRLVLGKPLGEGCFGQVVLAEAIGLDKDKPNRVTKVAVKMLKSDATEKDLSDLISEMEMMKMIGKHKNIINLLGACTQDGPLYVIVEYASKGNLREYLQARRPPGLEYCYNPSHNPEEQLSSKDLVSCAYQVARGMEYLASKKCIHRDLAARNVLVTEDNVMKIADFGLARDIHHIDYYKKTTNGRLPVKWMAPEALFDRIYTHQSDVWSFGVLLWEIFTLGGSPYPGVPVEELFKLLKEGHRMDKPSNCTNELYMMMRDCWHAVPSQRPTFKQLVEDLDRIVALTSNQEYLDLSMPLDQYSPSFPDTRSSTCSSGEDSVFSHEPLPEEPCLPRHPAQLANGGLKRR
# human FGFR1c/KLB cell surface receptor complex on iLite FGF21 reporter cells, sequence (Q86Z14 whole entry, chain 2 of 2): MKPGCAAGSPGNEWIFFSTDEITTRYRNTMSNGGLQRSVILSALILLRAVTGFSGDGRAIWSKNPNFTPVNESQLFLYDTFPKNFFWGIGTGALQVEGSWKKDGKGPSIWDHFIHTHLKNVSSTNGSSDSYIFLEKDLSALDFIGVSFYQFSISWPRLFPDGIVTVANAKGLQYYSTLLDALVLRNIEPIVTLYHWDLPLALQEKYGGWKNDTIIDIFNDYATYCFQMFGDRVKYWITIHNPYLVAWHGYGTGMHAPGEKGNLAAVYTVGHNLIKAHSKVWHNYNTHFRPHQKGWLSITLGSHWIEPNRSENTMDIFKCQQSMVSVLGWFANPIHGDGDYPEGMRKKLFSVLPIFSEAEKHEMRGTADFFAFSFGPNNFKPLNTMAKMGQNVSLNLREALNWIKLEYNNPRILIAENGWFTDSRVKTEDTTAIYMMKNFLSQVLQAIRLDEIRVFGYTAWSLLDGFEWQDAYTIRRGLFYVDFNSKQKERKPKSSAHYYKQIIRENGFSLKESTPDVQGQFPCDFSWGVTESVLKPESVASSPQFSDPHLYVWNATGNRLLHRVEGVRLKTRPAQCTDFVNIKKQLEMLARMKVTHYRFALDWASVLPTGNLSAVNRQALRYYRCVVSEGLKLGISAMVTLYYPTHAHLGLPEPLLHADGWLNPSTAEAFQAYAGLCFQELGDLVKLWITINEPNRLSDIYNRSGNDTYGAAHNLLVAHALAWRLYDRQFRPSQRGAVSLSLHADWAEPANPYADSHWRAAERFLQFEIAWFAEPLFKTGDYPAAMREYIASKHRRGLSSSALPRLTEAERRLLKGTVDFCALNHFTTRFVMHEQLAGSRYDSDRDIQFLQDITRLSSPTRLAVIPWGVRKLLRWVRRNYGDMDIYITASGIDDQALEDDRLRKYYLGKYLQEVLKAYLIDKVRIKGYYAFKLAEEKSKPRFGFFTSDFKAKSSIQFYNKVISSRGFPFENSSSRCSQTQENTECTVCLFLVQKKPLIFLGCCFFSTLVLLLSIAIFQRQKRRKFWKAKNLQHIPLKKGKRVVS
# [3] = target: human FGFR1c/KLB receptor complex on iLite FGF21 Assay Ready Cells (human, UniProt P11362 22-822; Q86Z14 1-1044); assay: cell-based or functional assay
# human FGFR1c/KLB receptor complex on iLite FGF21 Assay Ready Cells, sequence (P11362 22-822, chain 1 of 2): as the sequence (P11362 22-822, chain 1 of 2) above
# human FGFR1c/KLB receptor complex on iLite FGF21 Assay Ready Cells, sequence (Q86Z14 whole entry, chain 2 of 2): as the sequence (Q86Z14 whole entry, chain 2 of 2) above
# [4] = target: cell surface receptor composed of FGFR1c and co-receptor beta-Klotho (KLB) (human, UniProt P11362 22-822; Q86Z14 1-1044); assay: cell-based or functional assay
# Target sequence in this assay (P11362 22-822, chain 1 of 2): as the sequence (P11362 22-822, chain 1 of 2) above
# Target sequence in this assay (Q86Z14 whole entry, chain 2 of 2): as the sequence (Q86Z14 whole entry, chain 2 of 2) above
# [5] = target: cell surface receptor composed of FGFR1c and co-receptor beta-Klotho (KLB) (human, UniProt P11362 22-822; Q86Z14 1-1044); assay: cell-based or functional assay; remark: listed apart in the source
# Target sequence in this assay (P11362 22-822, chain 1 of 2): as the sequence (P11362 22-822, chain 1 of 2) above
# Target sequence in this assay (Q86Z14 whole entry, chain 2 of 2): as the sequence (Q86Z14 whole entry, chain 2 of 2) above
# Throughout, for Mean E max (%): reference of the scale not given here.
# Throughout, for Mean E max, Luciferase reporter gene assay: reference of the scale not given here.
Binder,koff [1],Mean E max (%) [2],Mean EC50 [2],also measured
B1,4.4e-05 s⁻¹,105%,0.143 nM,
B2,4.8e-05 s⁻¹,101%,0.163 nM,
B3,< 1e-05 s⁻¹,123%,0.114 nM,
B4,7.9e-06 s⁻¹,102%,0.105 nM,
B5,3.7e-05 s⁻¹,109%,0.125 nM,
B6,3.6e-05 s⁻¹,97%,0.109 nM,
B7,2.8e-05 s⁻¹,110%,0.14 nM,
B8,9.2e-05 s⁻¹,101%,0.117 nM,
B9,5.7e-05 s⁻¹,106%,0.107 nM,
B10,2.4e-05 s⁻¹,105%,0.144 nM,
B11,6.9e-07 s⁻¹,115%,0.124 nM,
B12,2.7e-05 s⁻¹,101%,0.107 nM,
B13,2.9e-05 s⁻¹,96%,0.091 nM,
B14,4e-05 s⁻¹,108%,0.098 nM,
B15,1.8e-05 s⁻¹,100%,0.109 nM,
B16,6.9e-05 s⁻¹,114%,0.125 nM,
B17,9.1e-05 s⁻¹,102%,0.11 nM,
B18,4e-05 s⁻¹,107%,0.122 nM,
B19,4.1e-05 s⁻¹,108%,0.087 nM,
B20,2.2e-05 s⁻¹,108%,0.104 nM,
B21,5e-05 s⁻¹,98%,0.109 nM,

Binder,koff [1],Mean E max (%) [2],Mean EC50 [2],also measured
B22,5.2e-06 s⁻¹,95%,0.096 nM,
B23,2.9e-05 s⁻¹,99%,0.128 nM,
B24,,110%,,
B25,,104%,,
B26,,105%,,
B27,,104%,,
B28,,100%,,
B29,,101%,,
B30,,110%,,
B31,,,,Mean E max (%) [3]: 105%
B32,,,,Mean E max (%) [3]: 100%
B33,,,,Mean E max (%) [3]: 101%
B34,,,,Mean E max (%) [3]: 100%; Mean EC50 [3]: 0.12 nM
B35,,,,Mean E max (%) [3]: 110%
B36,,,,"Mean E max, Luciferase reporter gene assay [4]: 104%"
B37,,,,"Mean E max, Luciferase reporter gene assay [4]: 97%"
B38,,,,"Mean E max, Luciferase reporter gene assay [4]: 102%"
B39,,,,"Mean E max, Luciferase reporter gene assay [5]: 75%; Mean EC50, Luciferase reporter gene assay [5]: 0.51 nM"
B40,,,,"Mean E max, Luciferase reporter gene assay [5]: 65%; Mean EC50, Luciferase reporter gene assay [5]: 2.55 nM"
B41,,,,"Mean E max, Luciferase reporter gene assay [5]: 67%; Mean EC50, Luciferase reporter gene assay [5]: 0.375 nM"
